From paper PMC7948480, “Enzymatic and structural properties of human glutamine:fructose-6-phosphate amidotransferase 2 (hGFAT2)” (The Journal of Biological Chemistry, 2020)

Columns and labels:
[1] = biological target: the molecule itself; assay: SEC; Superdex 200 column, 20 mM Tris-HCl pH 7.5, 150 mM NaCl, 1 mM DTT, 0.5% NP-40, 1 ml/min; mass estimated from standard proteins
[2] = biological target: the molecule itself; assay: cross-linking; 3, 5 or 10 ug of purified rhGFAT2-his in PBS with 1 mM EGS, 30 min, room temperature; stopped with 30 mM Tris-HCl pH 8.0; gradient SDS-PAGE, Coomassie staining

B1: recombinant human glutamine:fructose-6-phosphate amidotransferase 2 with a C-terminal 6xHisTag (rhGFAT2-his) (enzyme, UniProt O94808 2-682, looked up)
chain: CGIFAYMNYRVPRTRKEIFETLIKGLQRLEYRGYDSAGVAIDGNNHEVKERHIQLVKKRGKVKALDEELYKQDSMDLKVEFETHFGIAHTRWATHGVPSAVNSHPQRSDKGNEFVVIHNGIITNYKDLRKFLESKGYEFESETDTETIAKLIKYVFDNRETEDITFSTLVERVIQQLEGAFALVFKSVHYPGEAVATRRGSPLLIGVRSKYKLSTEQIPILYRTCTLENVKNICKTRMKRLDSSACLHAVGDKAVEFFFASDASAIIEHTNRVIFLEDDDIAAVADGKLSIHRVKRSASDDPSRAIQTLQMELQQIMKGNFSAFMQKEIFEQPESVFNTMRGRVNFETNTVLLGGLKDHLKEIRRCRRLIVIGCGTSYHAAVATRQVLEELTELPVMVELASDFLDRNTPVFRDDVCFFISQSGETADTLLALRYCKDRGALTVGVTNTVGSSISRETDCGVHINAGPEIGVASTKAYTSQFISLVMFGLMMSEDRISLQNRRQEIIRGLRSLPELIKEVLSLEEKIHDLALELYTQRSLLVMGRGYNYATCLEGALKIKEITYMHSEGILAGELKHGPLALIDKQMPVIMVIMKDPCFAKCQNALQQVTARQGRPIILCSKDDTESSKFAYKTIELPHTVDCLQGILSVIPLQLLSFHLAVLRGYDVDFPRNLAKSVTVE
notes: human glutamine:fructose-6-phosphate amidotransferase 2 (hGFAT2), product of the gfpt2 gene; The His tag comes from pET23a after the NotI site; Mostly a tetramer by SEC, with higher oligomers up to octamers; also called rhGFAT-his; source: E. coli Codon plus, soluble fraction, purified (Ni-NTA HisTrap column); not shown: His6, C-terminal, kept
In the case of B1, the “stoichiometry N” value [1] is reported as ≤ 8 and the “stoichiometry N” value [2] is reported as 4.
